Numbering of substitutions follows the chain as printed. Names may count otherwise. “And” between values parts separate entries of the source, which are not always exact repeats. Identical values can stand only once.
Key:
[1] = target: the molecule itself; experiment: SDS-PAGE oligomerization assay
[2] = target: the molecule itself; experiment: SDS-PAGE oligomerization assay with immunoblot
[3] = target: the molecule itself; experiment: SDS-PAGE oligomerization assay; remark: listed apart in the source

B1: wild-type phospholamban (natural protein, dog, UniProt P61012 1-52, looked up)
chain: MDKVQYLTRSAIRRASTIEMPQQARQNLQNLFINFCLILICLLLICIIVMLL
- stoichiometry N [1]: 5
- stoichiometry N [2]: 2 and 4 and ~6
- stoichiometry N [3]: > 6

B2: I38A mutant of C41L-PLB (natural protein, dog, UniProt P61012 1-52, looked up)
chain: B1 chain with I38A, C41L
- stoichiometry N [2]: 4

B3: L39A mutant of C41L-PLB (natural protein, dog, UniProt P61012 1-52, looked up)
chain: B1 chain with L39A, C41L
- stoichiometry N [2]: 4

B4: L42A mutant of C41L-PLB (natural protein, dog, UniProt P61012 1-52, looked up)
chain: B1 chain with C41L, L42A
- stoichiometry N [2]: 4

B5: I48A mutant of C41L-PLB (natural protein, dog, UniProt P61012 1-52, looked up)
chain: B1 chain with C41L, I48A
- stoichiometry N [2]: 5

B6: C41L-PLB (natural protein, dog, UniProt P61012 1-52, looked up)
chain: B1 chain with C41L
- stoichiometry N [2]: 4

— paper doi:10.1101/701797 (bioRxiv, 2019)
